From patent US20170210777A1 come the findings set out here.

In general, koff refers to the first-order rate constant of dissociation. Low values mean slow dissociation, high ones fast dissociation.

This assay addresses human IgG antibody (human). As to the kind of experiment: SPR (Biacore), ligand immobilised on CM5.

Turning to “modified protein A (manufactured by Sino Biological Inc.)”, the koff turned out to be 0.00032 s⁻¹.
